Substitutions are numbered along the chain they refer to.
Assays:
Ac-K-k-MeLeu-TCLASYCWLF = tested on: T1, Ac-K-k-MeLeu-TCLASYCWLF
T1 sequence: KKLTCLASYCWLF

[1] = tested on: T2, CGGSGGRRAPGKLQCLASYCWLFWTGIAC
T2 sequence: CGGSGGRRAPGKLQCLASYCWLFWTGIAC

[2] = tested on: T3, CGGSGGRRAPGKLQCLASYCWLFWTGIAGGSGGC
T3 sequence: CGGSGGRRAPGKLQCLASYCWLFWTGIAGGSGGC

[3] = tested on: T4, CNPRGD-Tyr(OEt)-RC-PEG16-Lys(PEG2-Biotin)-PEG16-rRAPGKLTCLASYCWLFWTGIA
T4 sequence: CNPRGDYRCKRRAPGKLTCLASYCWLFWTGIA

GVEDRQLTCLASSCWVFSRHSV = tested on: T5, GVEDRQLTCLASSCWVFSRHSV
T5 sequence: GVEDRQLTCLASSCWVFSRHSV

[4] = tested on: T6, GYRVPVGGLV RRAHG KLTCLASYCWLFWTGIA
T6 sequence: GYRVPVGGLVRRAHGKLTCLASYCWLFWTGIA

[5] = tested on: T7, Glu(Biotinyl-PEG)-RAPGKLTCLASYCWLFWTGIA
T7 sequence: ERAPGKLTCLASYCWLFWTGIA

[6] = tested on: T8, HLFGADWLGA RTAPG KLTCLASYCWLFWTGIA
T8 sequence: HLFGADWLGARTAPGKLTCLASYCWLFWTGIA

HQQRRKLTCLAGYCWLFVLGPS = tested on: T9, HQQRRKLTCLAGYCWLFVLGPS
T9 sequence: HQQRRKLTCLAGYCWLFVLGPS

[7] = tested on: T10, KLTCLASYCWLF-(PEG)4-CONH2
T10 sequence: KLTCLASYCWLF

KLTCLATYCWLF = tested on: T11, KLTCLATYCWLF
T11 sequence: KLTCLATYCWLF

KLTCLVSYCWLF = tested on: T12, KLTCLVSYCWLF
T12 sequence: KLTCLVSYCWLF

KLTcLASYCWLF = tested on: T13, KLTcLASYCWLF
T13 sequence: KLTCLASYCWLF

MAGMLKLTCFASYCGLFPLVSS = tested on: T14, MAGMLKLTCFASYCGLFPLVSS
T14 sequence: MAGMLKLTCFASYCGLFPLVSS

[8] = tested on: T15, PNLLRVRTSE VRNPG KLTCLASYCWLFWTGIA
T15 sequence: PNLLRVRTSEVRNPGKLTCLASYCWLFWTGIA

[9] = tested on: T16, PRIRTVGPGSRSASGKLTCFASYCWLFWTGIA
T16 sequence: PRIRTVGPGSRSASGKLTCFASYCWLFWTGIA

[10] = tested on: T17, PRIRTVGPGSRSASGKLTCIASYCWLFWTGIA
T17 sequence: T16 sequence with F20I

[11] = tested on: T18, PRSRTVGPGSRSASGKLTCLASYCWLFWTGIA
T18 sequence: T16 sequence with I3S, F20L

RGRSAKLRCLASYCWLFFGVIL = tested on: T19, RGRSAKLRCLASYCWLFFGVIL
T19 sequence: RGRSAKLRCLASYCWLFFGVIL

RLTCLASYCWLF = tested on: T20, RLTCLASYCWLF
T20 sequence: RLTCLASYCWLF

[12] = tested on: T21, RPRSSAHDRP RRAAG KLTCLASYCWLFWTGIA
T21 sequence: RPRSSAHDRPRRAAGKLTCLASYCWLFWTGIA

[13] = tested on: T22, RRAPGK-MeLeu-TCLASYCWLFWTGIA
T22 sequence: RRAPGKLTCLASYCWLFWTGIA

[14] = tested on: T23, RRAPGKCTALASYAWCFWTGIA-CONH2
T23 sequence: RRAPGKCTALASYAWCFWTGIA

[15] = tested on: T24, RRAPGKLCALASYCWLFWTGIA-CONH2
T24 sequence: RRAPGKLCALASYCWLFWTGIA

RRAPGKLQCLASYCWLFWT = tested on: T25, RRAPGKLQCLASYCWLFWT
T25 sequence: RRAPGKLQCLASYCWLFWT

[16] = tested on: T26, RRAPGKLT-Lys-LASY-Glu-WLFWTGIA-CONH2
T26 sequence: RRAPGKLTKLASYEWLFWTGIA

[17] = tested on: T27, RRAPGKLT-Orn-LASY-Asp-WLFWTGIA-COOH
T27 sequence: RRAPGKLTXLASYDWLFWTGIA

[18] = tested on: T28, RRAPGKLTCLASK(PEG2-Biotin)CWLFWTGIA
T28 sequence: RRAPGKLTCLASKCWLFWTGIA

[19] = tested on: T29, RRAPGKLTCLASYACLFWTGIA-CONH2
T29 sequence: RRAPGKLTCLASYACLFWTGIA

[20] = tested on: T30, RRAPGKLTCLASYACLFWTGIA-COOH
T30 sequence: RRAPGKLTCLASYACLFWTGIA

[21] = tested on: T31, RRAPGKLTCLASYCWLF QTGWA YWGYRQHPGS
T31 sequence: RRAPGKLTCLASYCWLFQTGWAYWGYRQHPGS

[22] = tested on: T32, RRAPGKLTCLASYCWLF WAGYP SLRGSLLVGV
T32 sequence: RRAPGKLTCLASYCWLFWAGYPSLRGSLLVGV

[23] = tested on: T33, RRAPGKLTCLASYCWLF WAVIA PPKVKGTRQS
T33 sequence: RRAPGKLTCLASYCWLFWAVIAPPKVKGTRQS

[24] = tested on: T34, RRAPGKLTCLASYCWLF WTGLS RYQWQAQEDV
T34 sequence: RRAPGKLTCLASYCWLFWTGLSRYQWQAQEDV

[25] = tested on: T35, RRAPGKLTCLASYCWLF WTGWC RDTASHACDS
T35 sequence: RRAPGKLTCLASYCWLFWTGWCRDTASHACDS

RRAPGKLTCLASYCWLFWTGIa [26] = tested on: T36, RRAPGKLTCLASYCWLFWTGIa
T36 sequence: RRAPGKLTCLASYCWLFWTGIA

RRAPGKLTCLASYCWLFWtGIA [27] = tested on: T37, RRAPGKLTCLASYCWLFWtGIA
T37 sequence: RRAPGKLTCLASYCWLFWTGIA

RRAPGKLTCLASYCWlFWTGIA [28] = tested on: T38, RRAPGKLTCLASYCWlFWTGIA
T38 sequence: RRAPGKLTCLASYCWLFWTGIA

[29] = tested on: T39, RRAPGKLTCLK(PEG2-Biotin)SYCWLFWTGIA
T39 sequence: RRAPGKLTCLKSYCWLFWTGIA

RRRKLTCLASYCWLFRRR = tested on: T40, RRRKLTCLASYCWLFRRR
T40 sequence: RRRKLTCLASYCWLFRRR

[30] = tested on: T41, SKAGRPISPDrRAAGKLTCLASYCWLFWTGIA
T41 sequence: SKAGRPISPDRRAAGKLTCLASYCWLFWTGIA

[31] = tested on: T42, SKQGRPISPDrRAAGKLTCLASYCWLFWTG
T42 sequence: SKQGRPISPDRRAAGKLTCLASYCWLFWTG

[32] = tested on: T43, SRIRTVSPGSRSASGKSTCLASYCWLFWTGIA
T43 sequence: T16 sequence with P1S, G7S, L17S, F20L

compound 10 = tested on: T44, compound 10
T44 sequence: KLTCLASYCWLFWTGIA

compound 19 = tested on: T45, compound 19
T45 sequence: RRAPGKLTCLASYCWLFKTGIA

rRAPGKLTCLASSCWLFWTGIA = tested on: T46, rRAPGKLTCLASSCWLFWTGIA
T46 sequence: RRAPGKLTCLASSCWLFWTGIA

[33] = tested on: T47, rRAPGKLTCLASYCWLFWTGIA-PEG16-Lys(PEG2-Biotin)-PEG16-Lys(palmitoyl)
T47 sequence: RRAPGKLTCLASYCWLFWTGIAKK

## human Factor IXa
Ac-K-k-MeLeu-TCLASYCWLF
  Vmax, FXa generation assay: > 2
[1]
  Vmax, FXa generation assay; (++) means 1-2: (++)
[2]
  Vmax, FXa generation assay; (++) means 1-2: (++)
[3]
  Vmax, FXa generation assay: > 3
GVEDRQLTCLASSCWVFSRHSV
  Vmax, FXa generation assay; (++) means 1-2: (++)
[4]
  Vmax, FXa generation assay: > 2
[5]
  Vmax, FXa generation assay: > 0.8
[6]
  Vmax, FXa generation assay; (++) means 1-2: (++)
HQQRRKLTCLAGYCWLFVLGPS
  Vmax, FXa generation assay: > 2
[7]
  Vmax, FXa generation assay; (++) means 1-2: (++)
KLTCLATYCWLF
  Vmax, FXa generation assay; (++) means 1-2: (++)
KLTCLVSYCWLF
  Vmax, FXa generation assay: > 2
KLTcLASYCWLF
  Vmax, FXa generation assay: > 2
MAGMLKLTCFASYCGLFPLVSS
  Vmax, FXa generation assay; (++) means 1-2: (++)
[8]
  Vmax, FXa generation assay; (++) means 1-2: (++)
[9]
  Vmax, FXa generation assay: > 2
[10]
  Vmax, FXa generation assay: > 2
[11]
  Vmax, FXa generation assay: > 3
RGRSAKLRCLASYCWLFFGVIL
  Vmax, FXa generation assay: > 2
RLTCLASYCWLF
  Vmax, FXa generation assay: > 2
[12]
  Vmax, FXa generation assay: > 3
[13]
  Vmax, FXa generation assay; (++) means 1-2: (++)
[14]
  Vmax, FXa generation assay; (++) means 1-2: (++)
[15]
  Vmax, FXa generation assay: > 2
RRAPGKLQCLASYCWLFWT
  Vmax, FXa generation assay: > 2
[16]
  Vmax, FXa generation assay; (++) means 1-2: (++)
[17]
  Vmax, FXa generation assay: > 2
[18]
  Vmax, FXa generation assay; (++) means 1-2: (++)
[19]
  Vmax, FXa generation assay: > 3
[20]
  Vmax, FXa generation assay: > 2
[21]
  Vmax, FXa generation assay: > 2
[22]
  Vmax, FXa generation assay: > 3
[23]
  Vmax, FXa generation assay: > 2
[24]
  Vmax, FXa generation assay: > 2
[25]
  Vmax, FXa generation assay; (++) means 1-2: (++)
RRAPGKLTCLASYCWLFWTGIa [26]
  Vmax, FXa generation assay; (++) means 1-2: (++)
RRAPGKLTCLASYCWLFWtGIA [27]
  Vmax, FXa generation assay; (++) means 1-2: (++)
RRAPGKLTCLASYCWlFWTGIA [28]
  Vmax, FXa generation assay; (++) means 1-2: (++)
[29]
  Vmax, FXa generation assay; (++) means 1-2: (++)
RRRKLTCLASYCWLFRRR
  Vmax, FXa generation assay; (++) means 1-2: (++)
[30]
  Vmax, FXa generation assay: > 2
[31]
  Vmax, FXa generation assay: > 2
[32]
  Vmax, FXa generation assay: > 3
Compound 10
  Vmax, FXa generation assay with hFIXa; (++) means 1-2: (++)
Compound 19
  Vmax, FXa generation assay with hFIXa: > 2
rRAPGKLTCLASSCWLFWTGIA
  Vmax, FXa generation assay; (++) means 1-2: (++)
[33]
  Vmax, FXa generation assay: > 3
